Reference: publication doi:10.1101/2023.03.17.532992

Tests used:
[1] = molecular target: nucleosome core particle (recombinant X. laevis histone octamer on 601 positioning DNA) (X. laevis); assay: native gel or EMSA
[2] = molecular target: nucleosome core particle (recombinant X. laevis histone octamer on 601 positioning DNA) (X. laevis); assay: MST
[3] = molecular target: nucleosome core particle (recombinant X. laevis histone octamer on 601 positioning DNA) (X. laevis); assay: SEC-MALS
[4] = molecular target: nucleosome core particle (recombinant X. laevis histone octamer on 601 positioning DNA) (X. laevis); assay: AUC

Substance | Kd [1] | decrease of binding affinity against wild type [1] | other results
BCL7C, full length (from UniProt Q8WUZ0 1-217) (natural protein) | 124 nM |  | 
BCL7A P78S mutant protein (from UniProt Q4VC05-2 1-231) (natural protein) |  | 50% | 
BCL7A, full length human (isoform Q4VC05-2, 231 amino acids) (from UniProt Q4VC05-2 1-231) (natural protein) | 218 nM |  | Kd [2]: 230 nM; stoichiometry N (BCL7A per NCP) [3]: 1; stoichiometry N (BCL7A per NCP) [4]: 1
BCL7A (1-100) truncation mutant (from UniProt Q4VC05-2 1-100) (domain or fragment) | 437 nM |  | 
BCL7A R11S mutant protein (from UniProt Q4VC05-2 1-231) (natural protein) |  | 50% | 
